Results published in PMC4174437.

Target: Ec Hfq WT (Escherichia coli, UniProt P0A6X3 1-102)
Experiment: fluorescence polarization

Ec Hfq WT, sequence (P0A6X3 whole entry): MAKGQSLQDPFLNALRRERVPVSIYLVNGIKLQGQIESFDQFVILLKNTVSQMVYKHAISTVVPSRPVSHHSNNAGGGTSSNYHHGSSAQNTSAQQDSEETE

B1: U6 (5'-fluorescein) (ssRNA)
RNA: UUUUUU
Kd: 3.3 nM
